Sequences and labels used below:
B1: Four and a half LIM domains protein 3 (Homo sapiens), Q13643 (parent)
chain: MSESFDCAKCNESLYGRKYIQTDSGPYCVPCYDNTFANTCAECQQLIGHDSRELFYEDRHFHEGCFRCCRCQRSLADEPFTCQDSELLCNDCYCSAFSSQCSACGETVMPGSRKLEYGGQTWHEHCFLCSGCEQPLGSRSFVPDKGAHYCVPCYENKFAPRCARCSKTLTQGGVTYRDQPWHRECLVCTGCQTPLAGQQFTSRDEDPYCVACFGELFAPKCSSCKRPIVGLGGGKYVSFEDRHWHHNCFSCARCSTSLVGQGFVPDGDQVLCQGCSQAGP
B2: DNA mismatch repair protein Mlh1 (Homo sapiens), P40692 (parent)
chain: MSFVAGVIRRLDETVVNRIAAGEVIQRPANAIKEMIENCLDAKSTSIQVIVKEGGLKLIQIQDNGTGIRKEDLDIVCERFTTSKLQSFEDLASISTYGFRGEALASISHVAHVTITTKTADGKCAYRASYSDGKLKAPPKPCAGNQGTQITVEDLFYNIATRRKALKNPSEEYGKILEVVGRYSVHNAGISFSVKKQGETVADVRTLPNASTVDNIRSIFGNAVSRELIEIGCEDKTLAFKMNGYISNANYSVKKCIFLLFINHRLVESTSLRKAIETVYAAYLPKNTHPFLYLSLEISPQNVDVNVHPTKHEVHFLHEESILERVQQHIESKLLGSNSSRMYFTQTLLPGLAGPSGEMVKSTTSLTSSSTSGSSDKVYAHQMVRTDSREQKLDAFLQPLSKPLSSQPQAIVTEDKTDISSGRARQQDEEMLELPAPAEVAAKNQSLEGDTTKGTSEMSEKRGPTSSNPRKRHREDSDVEMVEDDSRKEMTAACTPRRRIINLTSVLSLQEEINEQGHEVLREMLHNHSFVGCVNPQWALAQHQTKLYLLNTTKLSEELFYQILIYDFANFGVLRLSEPAPLFDLAMLALDSPESGWTEEDGPKEGLAEYIVEFLKKKAEMLADYFSLEIDEEGNLIGLPLLIDNYVPPLEGLPIFILRLATEVNWDEEKECFESLSKECAMFYSIRKQYISEESTLSGQQSEVPGSIPNSWKWTVEHIVYKALRSHILPPKHFTEDGNILQLANLPDLYKVFERC
B3: Placental protein 13-like (Homo sapiens), Q8TCE9 (parent)
chain: MSSLPVPYTLPVSLPVGSCVIITGTPILTFVKDPQLEVNFYTGMDEDSDIAFQFRLHFGHPAIMNSCVFGIWRYEEKCYYLPFEDGKPFELCIYVRHKEYKVMVNGQRIYNFAHRFPPASVKMLQVFRDISLTRVLISD
partner: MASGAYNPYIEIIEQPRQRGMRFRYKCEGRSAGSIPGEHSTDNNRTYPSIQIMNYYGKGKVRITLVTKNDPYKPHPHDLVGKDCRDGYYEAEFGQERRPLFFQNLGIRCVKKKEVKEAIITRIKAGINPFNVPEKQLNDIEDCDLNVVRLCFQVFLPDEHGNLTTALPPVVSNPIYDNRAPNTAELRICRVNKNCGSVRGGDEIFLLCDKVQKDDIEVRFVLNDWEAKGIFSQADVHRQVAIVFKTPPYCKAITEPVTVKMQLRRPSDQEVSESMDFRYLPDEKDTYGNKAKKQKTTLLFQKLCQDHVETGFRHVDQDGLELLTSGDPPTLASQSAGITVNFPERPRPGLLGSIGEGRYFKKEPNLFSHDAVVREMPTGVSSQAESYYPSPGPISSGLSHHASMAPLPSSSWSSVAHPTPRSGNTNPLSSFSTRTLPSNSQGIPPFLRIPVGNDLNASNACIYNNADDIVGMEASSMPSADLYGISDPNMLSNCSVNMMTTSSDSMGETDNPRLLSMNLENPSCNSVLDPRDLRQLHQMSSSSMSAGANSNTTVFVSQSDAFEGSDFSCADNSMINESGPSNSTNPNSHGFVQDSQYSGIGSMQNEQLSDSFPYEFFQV

Variants of B1 are the subject of one assay. To be noted: with FAM90A1, Q86YD7.
A103T: the “effect of a mutation on the interaction” value is listed as “with no effect”.

In the next assay the parent is B1. Conditions: with gata2_human GATA2, P23769.
On to R226H, for which the “effect of a mutation on the interaction” value was “with no effect”.

Another assay covers variants of B2. Conditions: with msh3_human MSH3, P20585.
As to A441T, the “effect of a mutation on the interaction” value is on record as “with no effect”.
Same read-out and setting: the value for S406N was “with no effect”; that for S106N was “with no effect”; that for V213M was “with no effect”.
For V326A, the “effect of a mutation on the interaction” value is on record as “disrupting interaction strength”.
The same measure, in the same setting: with V384D the entry was “with no effect”.

In a further assay the parent is B2. Conditions: with ima1_human KPNA2, P52292.
For the variant A441T, the “effect of a mutation on the interaction” value is “with no effect”.
Still for that read-out and setting: the value for S406N was “with no effect”; that for S106N was “with no effect”; that for V213M was “with no effect”.
On to V326A, for which the “effect of a mutation on the interaction” value was “disrupting interaction strength”.
Take V384D: the “effect of a mutation on the interaction” value is on record as “with no effect”.

Another assay covers variants of B2. To be noted: with psa1_human PSMA1, P25786.
As for A441T, the “effect of a mutation on the interaction” value is reported as “with no effect”.
Same read-out and setting: the value for S406N was “with no effect”; that for S106N was “with no effect”; that for V213M was “with no effect”.
In the case of V326A, the “effect of a mutation on the interaction” value is on record as “disrupting interaction strength”.
On the same count and under the same terms, the value for V384D was “with no effect”.

A further assay covers variants of B2. To be noted: with msh3_human MSH3, P20585. The source holds these as a separate data set.
Take R69K: the “effect of a mutation on the interaction” value was “with no effect”.

A further assay covers variants of B2. To be noted: with ima1_human KPNA2, P52292. The source holds these as a separate data set.
R69K: the “effect of a mutation on the interaction” value is given as “with no effect”.

Variants of B2 are the subject of another assay. To be noted: with psa1_human PSMA1, P25786. The source holds these as a separate data set.
On to R69K, for which the “effect of a mutation on the interaction” value was “with no effect”.

A further assay covers variants of B3. Conditions: with rel_human REL.
Take M123T: the “effect of a mutation on the interaction” value is listed as “with no effect”.

Values taken from IntAct's records for PubMed 31515488.
